No end group written: not given here.
B1: CUP L+NC peptide fused C-terminally to GB1 (domain or fragment)
chain: ALMHRSKESFVMPRIATCDDIELEGRLRRMNIWRT
B2: Thor C peptide fused C-terminally to GB1 (domain or fragment)
chain: TKLIYERAFMKNLR
B3: Thor R,G,T: Thor R81A, G82A, T83A (protein, UniProt Q9XZ56 1-117, looked up, variant R81A G82A T83A)
Eukaryotic translation …: MSASPTARQAITQALPMITRKVVISDPIQMPEVYSSTPGGTLYSTTPGGTKLIYERAFMKNLRGSPLSQTPPSNVPSCLLAAAPRTPFRKCVPVPTELIKQTKSLKIEDQEQFQLDL
B4: CUP C peptide fused C-terminally to GB1 (domain or fragment)
chain: KSYTRSRLMDIRNGMFN
B5: 4E-T C peptide fused C-terminally to GB1 (domain or fragment)
chain: RYSKVDLLALRYE

Columns and labels:
[1] = molecular target: T1, Dm eIF4E (residues 69–248, WT) (Drosophila melanogaster, UniProt P48598); test: ITC, binding to eIF4E (WT, residues 69–248); details: for KD: VP-ITC, 20 mM Na-phosphate (pH 7.0), 150 mM NaCl, GB1-fused peptides (C+NC 10 μM, C 50 μM, L+NC 100 μM CUP or 200 μM Thor and 4E-T, eIF4G 20 μM) into eIF4E WT 1–20 μM, one-site model, each experiment repeated twice, nb = no binding; for KD / Molar ratio / TΔS / ΔG / ΔH: 20 °C; for Molar ratio / TΔS / ΔG / ΔH: eIF4E WT (69–248), pH 7.0, nb = no binding
T1 construct: The truncated His6-eIF4E (residues 69–248) that was used in the ITC experiments; His6 (N, cleaved yes); made in house; host or cells: E. coli BL21 Star (DE3)
T1 sequence (P48598 69-248 isoform P48598-2): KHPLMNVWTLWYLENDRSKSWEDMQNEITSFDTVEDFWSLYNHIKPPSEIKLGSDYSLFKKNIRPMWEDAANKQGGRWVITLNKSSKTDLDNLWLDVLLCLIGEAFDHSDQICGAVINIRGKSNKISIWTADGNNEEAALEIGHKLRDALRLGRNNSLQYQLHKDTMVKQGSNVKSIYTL
Procedure: Unless indicated otherwise, all the proteins were expressed in E. coli BL21 Star (DE3) cells (Invitrogen) that were grown in LB medium overnight at 20 °C. The lysis buffers were supplemented with DNaseI (5 μg ml^−1), lysozyme (1 mg ml^−1) and protease inhibitor cocktail (Roche). The truncated His6-eIF4E (residues 69–248) that was used in the ITC experiments and in Figs 2c and 5b was purified in lysis buffer containing 50 mM HEPES (pH 7.2), 300 mM NaCl, 20 mM imidazole and 2 mM β-mercaptoethanol using Ni^2+-affinity chromatography (HisTrap HP 5 ml, GE Healthcare) and eluted with a gradient of 20–500 mM imidazole. After the cleavage of the His6-tag with HRV3C protease (homemade), the protein was further purified using a heparin column (HiTrap Heparin HP 5 ml, GE Healthcare), followed by size exclusion chromatography (Superdex 75 16/60, GE Healthcare) in 20 mM Na-phosphate (pH 7.0), 300 mM NaCl and 2 mM dithiothreitol (DTT).
For the ITC measurements and the competition assays shown in Figs 4 and 5d–g, the 4E-BP peptides corresponding to the canonical (C) motifs, the combined (C+NC) motifs or L+NC were expressed with an HRV3C cleavable N-terminal MBP-tag and a non-cleavable C-terminal GB1 domain. The cells were lysed by sonication in lysis buffer containing 50 mM HEPES (pH 7.2), 300 mM NaCl and 2 mM DTT. The proteins were purified from the cleared lysates using amylose resin (New England Biolabs) followed by the cleavage of the MBP tag with HRV3C protease overnight at 4 °C. The proteins were further purified by size exclusion chromatography (Superdex 75 16/60, GE Healthcare) in 20 mM Na-phosphate (pH 7.0), 300 mM NaCl and 2 mM DTT. For the eIF4G fragment (residues 578–650) the MBP was removed after cleavage with TEV protease through an additional anion exchange chromatography (HiTrap Q HP 5 ml, GE Healthcare) before the final gel filtration.
The ITC experiments were performed using a VP-ITC microcalorimeter (MicroCal) at 20 °C. The solution of eIF4E (residues 69–248, WT or mutant: 1–20 μM) in the calorimetric cell was titrated with tenfold concentrated solutions of GB1-stabilized peptides corresponding to 4E-BPs C+NC (10 μM), C (50 μM), L+NC (100 μM CUP, 200 μM Thor and 4E-T) or eIF4G (residues 578–650, 20 μM) that were dissolved in the same buffer (20 mM Na-phosphate (pH 7.0) and 150 mM NaCl). The titration experiments consisted of an initial injection of 2 μl followed by 28 injections of 10 μl at an interval of 240 s. Each binding experiment was repeated twice. The thermodynamic parameters were estimated using a one-site binding model (Origin version 7.0), whereby the datapoint of the first injection was removed for the analysis.
(d) minimal regions for binding to eIF4E (wild-type (WT), residues 69–248). The top panels represent the raw data (μcal sec−1) whereas the bottom panels show the integrated data (kcal mole−1 of injectant) of heat changes that were best-fitted using a one-site binding model. The thermodynamic parameters correspond to heat changes that were detected when 4E-BPs (10 µM) or eIF4G (20 µM) were injected into the calorimetric cell (1.4 mL) containing 1 µM (a,b,c) or 2 µM (d) eIF4E.
Supplementary Figure 4. Thermodynamic parameters for the interaction of eIF4E with 4E-BP peptides. (a–f) ITC profiles for the interaction of eIF4E (WT, residues 69-248) and CUP (a,d), Thor (b,e) and 4E-T (c,f) peptides containing only the canonical motifs (a–c) or the L+NC regions (d–f). The measurements were performed as described in Supplementary
Fig. 3. The solutions contained the peptides corresponding to the canonical motifs (50 µM) or the L+NC regions (100 µM for CUP and 200 µM for Thor and 4E-T). The eIF4E concentration in the calorimetric cell was 5 µM (for the C peptides), 10 µM (for CUP L+NC) and 20 µM (for Thor and 4E-T L+NC peptides).
(1 picture or pasted object on this page, not shown here)

[2] = test system: endogenous eIF4E and HA-tagged 4E-BPs in S2 cells; test: Immunofluorescence localization in S2 cells; format: cell-based, Drosophila melanogaster; details: −LMB
Procedure: S2 cells expressing HA-tagged versions of CUP, Thor and 4E-T or the indicated mutants were treated with Leptomycin B (100 nM; Sigma) or methanol as a control for 12 h. After the LMB treatment, the cells were allowed to adhere to poly-D-lysine–coated coverslips for 15 min and were fixed with 2% paraformaldehyde for 10 min. The cells were then permeabilized with 0.1% Triton X-100 in PBS (10 min) and stained with affinity-purified monoclonal anti-HA (Covance 1:1,000) and polyclonal anti-eIF4E (1:2,000) antibodies in PBS containing 1% BSA for 1 h. Alexa Fluor 594-labeled goat anti-rabbit and 488-labeled anti-mouse antibodies (Invitrogen) were used at dilutions of 1:1,000 and 1:2,000, respectively. The cells were mounted using Fluoromount-G (Southern Biotech). The images were acquired at room temperature using a confocal microscope (TCS SP2; Leica) that was fitted with a Plan-Apochromat × 100 NA 1.40 oil immersion objective and a series of three photomultipliers (Hamamatsu Photonics) controlled with the Leica confocal software (version 2.61). The images were prepared using Photoshop (Adobe). […]
Thor) independent experiments. […] Confocal fluorescent […]
micrographs of fixed S2 cells expressing HA-4E-T and GFP-Tral. The localization of HA-4E-T was determined by indirect immunofluorescence using an anti-HA antibody. The merged pictures show the HA signal in red and the GFP-Tral signal in green. Bar: 5 μm.

[3] = molecular target: T2, eIF4E (residues 69–248), purified (Drosophila melanogaster, UniProt P48598-2 69-248); test: ITC; VP-ITC, 20 °C; eIF4E (69–248, WT or mutant, 1–20 μM) in the cell, tenfold concentrated GB1-stabilized peptides titrated in; 20 mM Na-phosphate pH 7.0, 150 mM NaCl; one-site binding model; details: both partners purified
T2 construct: eIF4E, Drosophila melanogaster, residues 69–248; the methods say the tag was cleaved with HRV3C; also called truncated eIF4E; eIF4E trunc; not shown: His6, N-terminal, cleaved
T2 sequence (looked up): T1 sequence (P48598 69-248 isoform P48598-2)

endogenous eIF4E = test: Coimmunoprecipitation / m7GTP pull-down with endogenous eIF4E in S2 cell lysates; format: cell-based, Drosophila melanogaster; details: western blot
Procedure: The coimmunoprecipitations assays were performed as previously described. For the pull downs using m^7GTP beads, 25 μl of immobilized γ-aminophenyl-m^7GTP (C10-spacer—Jena Bioscience) beads was added to the cell lysates and the mixtures were rotated for 1 h at 4 °C. The beads were washed three times with NET buffer (50 mM Tris (pH 7.4), 150 mM NaCl, 1 mM EDTA and 0.1% Triton X-100). The bound proteins were eluted with 2 × SDS–polyacrylamide gel electrophoresis (SDS–PAGE) sample buffer and analyzed by western blotting (WB). All of the WB experiments were developed with the ECL western blotting detection system (GE Healthcare) as recommended by the manufacturer. The antibodies used in this study are listed in Supplementary Table 2.
Thor and 4E-T) or HA-eIF4G and endogenous eIF4E in S2 cell lysates. The proteins were immunoprecipitated using a polyclonal anti-eIF4E antibody (α-4E). The pre-immune (Pre-I) serum and an HA-tagged version of MBP served as negative controls. The inputs (1%) and immunoprecipitates (10%) were analyzed by western blotting using anti-HA and anti-eIF4E antibodies. (b,c) The interaction of HA-tagged full length 4E-BPs (CUP, Thor and 4E-T) and eIF4G with endogenous eIF4E was analyzed by coimmunoprecipitation using anti-HA antibodies (b) or by pull-down using m7GTP-Sepharose beads (c). HA-MBP served as a negative control. The inputs (10%) and immunoprecipitates (30%) were analyzed by western blotting using anti-HA and anti-eIF4E antibodies. (d) Western blot showing the interaction of HA-Thor (full-length either wild-type or mutants) with endogenous eIF4E in S2 cells. The proteins were immunoprecipitated using anti-HA antibodies and analyzed as described in (b,c). (e) Western blot showing the interaction of HA-4E-T (residues 1–511, wild-type or mutants) with endogenous eIF4E. The proteins were immunoprecipitated using anti-HA antibodies and analyzed as described in (b,c). The size markers (kDa) are shown to the right of each panel. Mutants are described in Supplementary Table 1.

| Molecule | TΔS [1] | ΔG [1] | Kd [3] | dH [3] | stoichiometry N [3] | further results |
| --- | --- | --- | --- | --- | --- | --- |
| 4E-T L+NC: 4E-T residues 22–44, linker+non-canonical | nb | nb |  |  |  | KD [1]: nb; Molar ratio [1]: nb; ΔH [1]: nb |
| 4E-T NC: 4E-T residues 31–44, non-canonical motif |  |  |  |  |  | localization of endogenous eIF4E (in words) ([2]; S2 cells overexpressing 4E-BP or mutant): the number of eIF4E-positive P-bodies was reduced; localization of the 4E-BP (in words) ([2]; S2 cells, steady-state): still localized to P-bodies |
| CUP L+NC: CUP residues 342–376, linker+non-canonical, C-terminal GB1 (ALMHRSKESFVMPRIATCDDIELEGRLRRMNIWRT-GB1; UniProt Q9VMA3 342-376, looked up, fragment) | -9.1 kcal/mol | -9.38 kcal/mol |  |  |  | KD of L+NC relative to C motif (in words) ([1]; eIF4E WT): comparable to that of the C motif; binding thermodynamics (in words) ([1]; eIF4E WT): enthalpically driven; interaction with eIF4E (in words) ([1]; eIF4E WT, L+NC peptides): interacted with eIF4E at detectable levels |
| Thor L+NC: Thor residues 64–83, linker+non-canonical | nb | nb |  |  |  | KD [1]: nb; Molar ratio [1]: nb; ΔH [1]: nb |
| B1 |  |  | 103 nM | -18.5 ± 0.2 kcal/mol | 0.98 ± 0.01 |  |
| B2 |  |  | 2260 nM | -12.1 ± 2.8 kcal/mol | 1.06 ± 0.01 |  |
| B3 |  |  |  |  |  | interaction with endogenous eIF4E (in words) (endogenous eIF4E): ineffective |
| B4 |  |  | 160 nM | -16.84 ± 0.04 kcal/mol | 1.01 ± 0.01 |  |
| B5 |  |  | 16 nM | -18.6 ± 0.7 kcal/mol | 0.95 ± 0.01 |  |

Source: PMC4164784, “4E-BPs require non-canonical 4E-binding motifs and a lateral surface of eIF4E to repress translation” (Nature Communications, 2014)
